{"source": "patent US20100310640A1", "test_in_all_cases": "radiolabeled-peptide inhibition, purified HLA-DR", "details_in_all_cases": "remark: other sources report otherwise", "key": {"HLA-DR DRB4*0101 (human)": {"molecular_target": "T1, HLA-DR DRB4*0101 (human)", "T1 chain 1": "not shown", "T1 chain 2": "not shown"}, "HLA-DR DRB1*0701 (human)": {"molecular_target": "T2, HLA-DR DRB1*0701 (human)", "T2 chain 1": "not shown", "T2 chain 2": "not shown"}, "HLA-DR DRB1*1501 (human)": {"molecular_target": "HLA-DR DRB1*1501 (human)"}, "HLA-DR DRB1*0101 (human)": {"molecular_target": "T3, HLA-DR DRB1*0101 (human)", "T3 chain 1": "not shown", "T3 chain 2": "not shown"}, "HLA-DR DRB1*0401 (human)": {"molecular_target": "T4, HLA-DR DRB1*0401 (human)", "T4 chain 1": "not shown", "T4 chain 2": "not shown"}, "HLA-DR DRB1*0404 (human)": {"molecular_target": "T5, HLA-DR DRB1*0404 (human)", "T5 chain 1": "not shown", "T5 chain 2": "not shown"}, "HLA-DR DRB1*1101 (human)": {"molecular_target": "T6, HLA-DR DRB1*1101 (human)", "T6 chain 1": "not shown", "T6 chain 2": "not shown"}}, "data": [{"binder": "SLTLQGLGISWLGLR", "note": "[9019.0055]", "values": [{"measurement": "IC50", "setting": "HLA-DR DRB4*0101 (human)", "value": 22, "unit": "nM"}, {"measurement": "IC50", "setting": "HLA-DR DRB1*0701 (human)", "value": 3100, "unit": "nM"}, {"measurement": "IC50", "setting": "HLA-DR DRB1*1501 (human)", "value": 50, "unit": "nM"}, {"measurement": "IC50", "setting": "HLA-DR DRB1*0101 (human)", "value": 93, "unit": "nM"}, {"measurement": "IC50", "setting": "HLA-DR DRB1*0401 (human)", "value": 143, "unit": "nM"}, {"measurement": "IC50", "setting": "HLA-DR DRB1*0404 (human)", "value": 110, "unit": "nM"}, {"measurement": "IC50", "setting": "HLA-DR DRB1*1101 (human)", "value": 6310, "unit": "nM"}]}]}
